This is an account of results in patent US20250027068A1.

The chains are these.
B1: VRT-14 (Fc fusion)
chain: SQTEDSESLQRLRDIEDFQAEKKKQNVVYTKWLDGVDVKDHDFRKIVDGNIAYYATPLLNGRGFYDINKDFNRDSDKCAAAVAANMFHYWLDRNRDNVDRFLRQNPEKHGIIELPDGQLKLSDFLNTYESDDGYRDKSKLFDFISNNFNGPVWTDKLLDNYINGYAYNYKYGRTIEDPTKNTSKINFFKEVFNEKILTNNHSIRNQNEFSVLLSEALYTGKAIGLSYGPAGLRHSLGHIISVWGADLDADGNVVAIYVTDSDDKKLTIGDERVGLKRYKISTDDEGRLRLTAYEETHNTGGQIRGLWTLDTGKQAWADYFDKTEQTGTDQAEQDKTHTCPPCPAPEAAGAPSVFLFPPKPKDTLMISRTPEVTCVVVDVSHEDPEVKFNWYVDGVEVHNAKTKPREEQQNSTYRVVSVLTVLHQDWLNGKEYKCKVSNKALKAPIEKTISKAKGQPREPQVYTLPPSRDELTKNQVSLTCLVKGFYPSDIAVEWESNGQPENNYKTTPPVLDSDGSFFLYSKLTVDKSRWQQGNVFSCSVMHEALHNHYTQKSLSLSPG
B2: VRT-19 (Fc fusion)
chain: SQTEDSESLQRLRDIEDFQAEKKMQNVVYTKWLDGVDVKDHDFRKIVDGNIAYYATPLLNGRGFYDINKDFNRDNDKCAAAVAANMFHYWLDINRDNVDRFLRQNPEKHGIIELPDGQLKLSDFLNTYESDHGYRDKSKLFDFISNNFNGPVWTDKLLDNYINGYAYNYKYGRTIEDSTKNTSKINFFKEVFNEKILTNNHSIRNQNEFSVLLSEALYTGKAIGLSYGPAGLRHSLGHIISVWGADLDADGNVVAIYVTDSDDKKLTIGDERVGLKRYKISTDDENRLRLTAYEETHNTGGQIRGLWTLDTGKYAWADYFDKTEQTGTDQAEQDKTHTCPPCPAPEAAGAPSVFLFPPKPKDTLMISRTPEVTCVVVDVSHEDPEVKFNWYVDGVEVHNAKTKPREEQQNSTYRVVSVLTVLHQDWLNGKEYKCKVSNKALKAPIEKTISKAKGQPREPQVYTLPPSRDELTKNQVSLTCLVKGFYPSDIAVEWESNGQPENNYKTTPPVLDSDGSFFLYSKLTVDKSRWQQGNVFSCSVMHEALHNHYTQKSLSLSPG
B3: VRT-18 (Fc fusion)
chain: QITSVWTKGVTPLTPEQFRYNNEDVIHAPYLAHQGWYDITKAFDGKDNLLCGAATAGNMLHWWFDQNKTEIEAYLSKHPEKQKIIFNNQELFDLKAAIDTKDSQTNSQLFNYFRDKAFPGLSARQLGVFPDLVLDMFINGYYLNVFKTQSTDVNRPYQDKDKRGGIFDAVFTRGVQTTLLTARHDLKNKGLNDISTIIKQELTEGRALALSHTYANVRISHVINLWGADFNAEGNLEAIYVTDSDANASIGMKKYFVGINAHGHVAISAKKIEGENIGAQVLGLFTLSSGKDIWQKLSDKTHTCPPCPAPEAAGAPSVFLFPPKPKDTLMISRTPEVTCVVVDVSHEDPEVKFNWYVDGVEVHNAKTKPREEQQNSTYRVVSVLTVLHQDWLNGKEYKCKVSNKALKAPIEKTISKAKGQPREPQVYTLPPSRDELTKNQVSLTCLVKGFYPSDIAVEWESNGQPENNYKTTPPVLDSDGSFFLYSKLTVDKSRWQQGNVFSCSVMHEALHNHYTQKSLSLSPG
B4: VRT-17 (Fc fusion)
chain: VTSVWTKGVTPPAKFTQGEDVFHAPYVANQGWYDITKTFNGKDNLLCGAATAGNMLHWWFDQNKEKIEAYLKKHPDKQKIIFGDQELLDVRKVINTKGDQTNSELFNYFRDKAFPGLSARRIGVFPDLVLDMFINGYYLNVYKTQTTDVNRTYQEKDRRGGIFDAVFTRGVQSKLLTSRHDFKEKNLKEISDLIKKELTEGKALGLSHTYANVRINHVINLWGADFDSNGNLKAIYVTDSDTNASIGMKKYFVGVNSAGKVAISAKEIKEDNIGAQVLGLFTLSTGQDSWNQTNDKTHTCPPCPAPEAAGAPSVFLFPPKPKDTLMISRTPEVTCVVVDVSHEDPEVKFNWYVDGVEVHNAKTKPREEQQNSTYRVVSVLTVLHQDWLNGKEYKCKVSNKALKAPIEKTISKAKGQPREPQVYTLPPSRDELTKNQVSLTCLVKGFYPSDIAVEWESNGQPENNYKTTPPVLDSDGSFFLYSKLTVDKSRWQQGNVFSCSVMHEALHNHYTQKSLSLSPG
B5: VRT-11 (Fc fusion)
chain: QITSVWTKGVTPPTPEQFRYNNEDVIHAPYLANQGWYDITKTFNGKDNLLCGAATAGNMLHWWFDQNKTEIEAYLSKHPEKQKIIFNNQELFDLKAAIDTKDSQTNSQLFNYFRDKAFPNLSARQLGVMPDLVLDMFINGYYLNVFKTQSTDVNRPYQDKDKRGGIFDAVFTRGDQTTLLTARHDLKNKTLNDISTLIKQELTEGKALALSHTYANVSISHVINLWGADFNAEGNLEAIYVTDSDANASIGMKKYFVGVNAHGKVAISAKKIEGENIGAQVLGLFTLSSGKDIWQKLSDKTHTCPPCPAPEAAGAPSVFLFPPKPKDTLMISRTPEVTCVVVDVSHEDPEVKFNWYVDGVEVHNAKTKPREEQQNSTYRVVSVLTVLHQDWLNGKEYKCKVSNKALKAPIEKTISKAKGQPREPQVYTLPPSRDELTKNQVSLTCLVKGFYPSDIAVEWESNGQPENNYKTTPPVLDSDGSFFLYSKLTVDKSRWQQGNVFSCSVMHEALHNHYTQKSLSLSPG
B6: VRT-13 (Fc fusion)
chain: QITSVWTKGVTPPTPEQFRYNNEDVFHAPYTAHQGWYDITKTFDGKDNLLCGAATAGNMLHWWFDQNKTEIEAYLSKHPEKQKIIFNNQELFDLKAAIDTKDSQTNSALFNYFRDKAFPNLSARQLGVMPDLVLDMFINGYYLNVFKTQSTDVNRPYQDKDKRGGIFDAVFTRGDQTTLLTARHDLKNKTLNDISTIIKQELTEGRALALSHTYANVSISHVINLWGADFNAEGNLEAIYVTDSDSNASIGMKKYFVGVNASGKVAISAKKIEGENIGAQVLGLFTLSSGKDIWQKLSDKTHTCPPCPAPEAAGAPSVFLFPPKPKDTLMISRTPEVTCVVVDVSHEDPEVKFNWYVDGVEVHNAKTKPREEQQNSTYRVVSVLTVLHQDWLNGKEYKCKVSNKALKAPIEKTISKAKGQPREPQVYTLPPSRDELTKNQVSLTCLVKGFYPSDIAVEWESNGQPENNYKTTPPVLDSDGSFFLYSKLTVDKSRWQQGNVFSCSVMHEALHNHYTQKSLSLSPG
B7: VRT-12 (Fc fusion)
chain: QITSVWTKGVTPLTPEQFRYNNEDVIHAPYLANQGWYDITKTFNGKDNLLCGAATAGNMLHWWFDQNKTEIEAYLKKHPEKQKIIFNNQELFDLKAAIDTKDSQTNSQLFNYFRDKAFPNLSARQLGVMPDLVLDMFINGYYLNVFKTQSTDVNRPYQDKDKRGGIFDAVFTRGDQTTLLTARHDLKNKGLNEISTLIKQELTEGKALALSHTYANVSISHVINLWGADFNAEGNLEAIYVTDSDSNASIGMKKYFVGVNAHGKVAISAKKIEGENIGAQVLGLFTLSSGKDIWQKLSDKTHTCPPCPAPEAAGAPSVFLFPPKPKDTLMISRTPEVTCVVVDVSHEDPEVKFNWYVDGVEVHNAKTKPREEQQNSTYRVVSVLTVLHQDWLNGKEYKCKVSNKALKAPIEKTISKAKGQPREPQVYTLPPSRDELTKNQVSLTCLVKGFYPSDIAVEWESNGQPENNYKTTPPVLDSDGSFFLYSKLTVDKSRWQQGNVFSCSVMHEALHNHYTQKSLSLSPG
B8: VRT-16 (Fc fusion)
chain: VTSVWTKGVTPPANFTQGEDVFHAPYVANQGWYDITKTFNGKDNLLCGAATAGNMLHWWFDQNKDQIKRYLEEHPEKQKINFNGEQLFDVKEAIDTKNHQLDSKLFEYFKEKAFPYLSTKHLGVFPDHVIDMFINGYRLSLTNHGPTPVKEGSKDKRGGIFDAVFTRGVQSKLLTSRHDFKEKNLKEISDLIKKELTEGKALGLSHTYANVRINHVINLWGADFDSNGNLKAIYVTDSDTNASIGMKKYFVGVNSAGKVAISAKEIKEDNIGAQVLGLFTLSTGQDSWNQTNDKTHTCPPCPAPEAAGAPSVFLFPPKPKDTLMISRTPEVTCVVVDVSHEDPEVKFNWYVDGVEVHNAKTKPREEQQNSTYRVVSVLTVLHQDWLNGKEYKCKVSNKALKAPIEKTISKAKGQPREPQVYTLPPSRDELTKNQVSLTCLVKGFYPSDIAVEWESNGQPENNYKTTPPVLDSDGSFFLYSKLTVDKSRWQQGNVFSCSVMHEALHNHYTQKSLSLSPG
B9: VRT-20 (Fc fusion)
chain: VTSVWTKGVTPPANFTQGEDVFHAPYVANQGWYDITKTFNRKDNLLCGAATAGNMLHWWFDQNKDQIKRYLEEHPEKQKINFKGEQLFDVKEAIDTKNHQLDSKLFEYFKEKAFPYLSTKHLGVFPDHVIDMFINGYRLSLTNHGPTPVKEGSKDKRGGIFDAVFTRGVQSKLLTSRHDFKEKNLKEISDLIKKELTEGKALGLSHTYANVRINHVINLWGADFDSNGNLKAIYVTDSDTEASIGMKKYFVGVNKAGKVAISAKEIKEDNIGAQVLGLFTLSTGQDSWNQTNDKTHTCPPCPAPEAAGAPSVFLFPPKPKDTLMISRTPEVTCVVVDVSHEDPEVKFNWYVDGVEVHNAKTKPREEQQNSTYRVVSVLTVLHQDWLNGKEYKCKVSNKALKAPIEKTISKAKGQPREPQVYTLPPSRDELTKNQVSLTCLVKGFYPSDIAVEWESNGQPENNYKTTPPVLDSDGSFFLYSKLTVDKSRWQQGNVFSCSVMHEALHNHYTQKSLSLSPG

The test concerns the target pooled human IgG (human). The test is described as follows: cell-based or functional assay.
B1 gave an Enzyme Activity Endpoint Assay: Fab′2 of 0 ng/µL, an Enzyme Activity Endpoint Assay: Fc of 4 ng/µL, an Enzyme Activity Endpoint Assay: IgG of 1020 ng/µL and an Enzyme Activity Endpoint Assay: scIgG of 22 ng/µL.
For B2 the same measures were 0 ng/µL, 54 ng/µL, 1250 ng/µL and 33 ng/µL.
The molecule B3 yielded an Enzyme Activity Endpoint Assay: Fab′2 of 0 ng/µL, an Enzyme Activity Endpoint Assay: Fc of 4 ng/µL, an Enzyme Activity Endpoint Assay: IgG of 995 ng/µL and an Enzyme Activity Endpoint Assay: scIgG of 9 ng/µL.
B4 showed an Enzyme Activity Endpoint Assay: Fab′2 of 0 ng/µL, an Enzyme Activity Endpoint Assay: Fc of 5 ng/µL, an Enzyme Activity Endpoint Assay: IgG of 1030 ng/µL and an Enzyme Activity Endpoint Assay: scIgG of 20 ng/µL.
For B5, the Enzyme Activity Endpoint Assay: Fab′2 amounted to 0 ng/µL, the Enzyme Activity Endpoint Assay: Fc stood at 90 ng/µL, the Enzyme Activity Endpoint Assay: IgG stood at 829 ng/µL and the Enzyme Activity Endpoint Assay: scIgG is 38 ng/µL.
The molecule B6 displayed an Enzyme Activity Endpoint Assay: Fab′2 of 0 ng/µL, an Enzyme Activity Endpoint Assay: Fc of 97 ng/µL, an Enzyme Activity Endpoint Assay: IgG of 814 ng/µL and an Enzyme Activity Endpoint Assay: scIgG of 42 ng/µL.
In turn, B7 registered an Enzyme Activity Endpoint Assay: Fab′2 of 0 ng/µL, an Enzyme Activity Endpoint Assay: Fc of 101 ng/µL, an Enzyme Activity Endpoint Assay: IgG of 747 ng/µL and an Enzyme Activity Endpoint Assay: scIgG of 64 ng/µL.
For B8 the same measures were 0 ng/µL, 130 ng/µL, 682 ng/µL and 91 ng/µL.
As for B9, the Enzyme Activity Endpoint Assay: Fab′2 amounted to 0 ng/µL, the Enzyme Activity Endpoint Assay: Fc turned out to be 5 ng/µL, the Enzyme Activity Endpoint Assay: IgG was 981 ng/µL and the Enzyme Activity Endpoint Assay: scIgG came out at 12 ng/µL.
